For 1 molecule, Kd results are on record in patent US20240425569A1 (VISTERRA, published 2024).

Changes are numbered by the printed parent chain. Where two headings read alike, the source gives them in different places. Where only a bound is given, the exact number is not on record here.

The target in test [1] is T1, Philippines/1956 (H87)* (serotype III EDIII) (Dengue virus 3).
T1 construct: isolated EDIII protein

For test [2], the target named is T2, ED3-DV4/H241/Phil56 (EDIII of DENV-4 strain H241) (dengue virus serotype DENV-4, strain …, UniProt Q58HT7 572-679). Description: Kd table, method not stated; Ag DENV-4 Phil.
Test [3] deals with T3, EDIII-DV3 (E protein domain III of dengue virus serotype DV-3) (dengue virus serotype DV-3, UniProt P27915 571-678).
T3 construct: also called DENV-3; EDIII of DV-3
T3 sequence (P27915 571-678, tags left off): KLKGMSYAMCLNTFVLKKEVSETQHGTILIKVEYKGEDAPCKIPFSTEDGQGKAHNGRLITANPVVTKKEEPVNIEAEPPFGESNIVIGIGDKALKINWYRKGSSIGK
The test is described as follows: competition ELISA.

Test [4] deals with T4, EDIII-DV1 (E protein domain III of dengue virus serotype DV-1) (dengue virus serotype DV-1, UniProt P17763 573-680).
T4 construct: also called DENV-1; EDIII of DV-1
T4 chain: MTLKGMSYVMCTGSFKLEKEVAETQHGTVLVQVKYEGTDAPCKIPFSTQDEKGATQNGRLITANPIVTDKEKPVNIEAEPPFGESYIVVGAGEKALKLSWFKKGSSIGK
The test is described as follows: competition ELISA. A general note: In an ELISA, binding on a coated surface is turned into a signal by an enzyme label.

In test [5] the target is T5, EDIII-DV2 (E protein domain III of dengue virus serotype DV-2) (dengue virus serotype DV-2, UniProt P14337 573-677).
T5 construct: also called DENV-2; EDIII of DV-2
T5 sequence (P14337 573-677, tags left off): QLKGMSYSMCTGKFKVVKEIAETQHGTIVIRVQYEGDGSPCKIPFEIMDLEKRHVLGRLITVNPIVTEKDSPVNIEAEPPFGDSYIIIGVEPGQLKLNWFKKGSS
Description: competition ELISA.

Test [6] deals with T6, New Caledonia/2009 (serotype IV EDIII).
T6 construct: also called ED3-DV4/NewCal09; DENV-4 NC
T6 E protein domain III (EDIII): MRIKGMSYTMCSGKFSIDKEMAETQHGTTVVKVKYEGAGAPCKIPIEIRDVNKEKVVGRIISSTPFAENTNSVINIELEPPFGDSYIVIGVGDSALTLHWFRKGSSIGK
The test is described as follows: ELISA; row New Caledonia/2009, serotype IV, genotype IIb.

The target in test [7] is T7, Mexico/1977 (BC287/97)* (serotype IV EDIII) (Dengue virus 4).
T7 construct: isolated EDIII protein; also called EDIII of DENV-4 Mexico/1997 (BC287/97); DENV-4 BC2
The test is described as follows: Kd table, method not stated; Ag DENV-4 BC2.

Test [8] deals with T8, Vietnam/2008 (serotype I EDIII).
T8 construct: also called ED3-DV1/Viet08
T8 E protein domain III (EDIII): T4 chain with V21L, V33I, A54V, V89I

Test [9] concerns the target T9, Singapore/2008 (serotype II EDIII).
T9 construct: also called ED3-DV2/Sing08; DENV-2 Sing
Description: SPR; row Singapore/2008, serotype II, genotype Cosmopolitan.

In test [10] the target is T10, Puerto Rico/1977 (serotype III EDIII).
T10 construct: Genotype IV; also called ED3-DV3/PuertoRico77
T10 E protein domain III (EDIII): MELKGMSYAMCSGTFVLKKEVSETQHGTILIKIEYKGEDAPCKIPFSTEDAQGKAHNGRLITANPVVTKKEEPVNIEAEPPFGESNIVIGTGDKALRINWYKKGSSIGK
Description: ELISA; row Puerto Rico/1977, serotype III, genotype IV.

For test [11], the target named is T7, Mexico/1977 (BC287/97)* (serotype IV …). The test is described as follows: SPR; row Mexico/1977 (BC287/97)*, serotype IV, genotype IIa. On the technique in general: SPR reads the build-up and loss of mass on a sensor chip optically.
The target in test [12] is T3, EDIII-DV3 (E protein domain III of …).
For test [13], the target named is T11, EDIII-DV4 (E protein domain III of dengue virus serotype DV-4) (dengue virus serotype DV-4, UniProt P09866 572-679).
T11 construct: also called DENV-4
T11 sequence (P09866 572-679, tags left off): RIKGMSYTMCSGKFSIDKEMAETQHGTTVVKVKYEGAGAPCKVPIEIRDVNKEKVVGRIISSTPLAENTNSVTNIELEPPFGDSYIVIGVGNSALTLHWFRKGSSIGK

Test [14] concerns the target T12, Nicaragua/2010 (serotype III EDIII).
T12 construct: also called ED3-DV3/Nicaragua10; DENV-3 Nic
T12 E protein domain III (EDIII): T10 E protein domain III (EDIII) with S12T, G13N, I33V, A40V, A51G, T91I, K94N, R97K

The target in test [15] is T11, EDIII-DV4 (E protein domain III of …). The source holds these as a separate data set.
Test [16] addresses T2, ED3-DV4/H241/Phil56 (EDIII of DENV-4 …). Description: SPR; row Philippines/1956 (H241)*, serotype IV, genotype I.
Test [17] deals with T13, Vietnam/2007 (serotype II EDIII).
T13 construct: Genotype Asian II; also called ED3-DV2/Viet07
T13 E protein domain III (EDIII): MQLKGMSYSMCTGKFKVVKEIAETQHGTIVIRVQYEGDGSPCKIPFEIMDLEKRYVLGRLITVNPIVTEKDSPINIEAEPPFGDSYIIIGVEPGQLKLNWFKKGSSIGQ
The test is described as follows: ELISA; row Vietnam/2007, serotype II, genotype Asian II.

The target in test [18] is T14, Malaysia/2005 (serotype I EDIII).
T14 construct: also called ED3-DV1/Malaysia05
T14 E protein domain III (EDIII): T4 chain with M6I, S14P, T48S, A54V, I61V

The target in test [19] is T15, Venezuela/2008 (serotype IV EDIII).
T15 E protein domain III (EDIII): T6 E protein domain III (EDIII) with I44V, I60V, S63A, F66L, I74T, D93N
Description: ELISA; row Venezuela/2008, serotype IV, genotype IIa.

T1 sequence (P27915 576-671): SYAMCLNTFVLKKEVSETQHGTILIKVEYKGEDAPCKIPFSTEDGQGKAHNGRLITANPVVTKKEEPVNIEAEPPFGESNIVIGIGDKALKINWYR

B1: antibody D88 (antibody, V domains shown)
VH: QVQLVQSGAEVKKPGASVKVSCKAGFNIKDVYMSWVRQAPEQGLEWMGRIDPENGDTKYDPKLQGRVTMTADTSTNTAYMELRSLRSDDTAVYYCARGWEGFAYWGQGTLVTVSS
VL: DIVMTQSPASLAVSLGERATISCRASENVDKYGNSFMHWYQQKPGQPPKLLIYRASELQWGVPDRFSGSGSGTDFTLTISSLQAEDVAVYYCQRSNEVPWTFGQGTKLEIK
notes: also called mAb D88
By Kd is commonly meant a measure of binding affinity in units of concentration. Low values mean higher affinity, high ones lower affinity. Turning to B1, the Kd in [1] was 1.2 nM; in [2], 148 nM; in [3] it was 1.21 nM; in [4], under 0.1 nM; in test [5] it was under 0.1 nM; in test [6], 10.8 nM. Further, the Kd was 7.2 nM in test [7]; under 0.1 nM in test [8]; 0.024 nM in test [9]; 1.36 nM in [10]; 3.8 nM in test [11]; 1.05 nM in test [12]. Moreover, the equilibrium dissociation constant (Kd) is 5.01 nM in [13]; 3.36 nM in test [14]; 3.12 nM in test [15]; 118 nM in test [16]; under 0.1 nM in test [17]; 0.064 nM in [18]. This molecule also registered a Kd in test [19] of 4.5 nM.
